# Laboratory results: US20250340661A1 (JIANGSU HENGRUI PHARMACEUTICALS, published 2025)
# Where a chain is given by its changes, count along the chain named.
# B1: 3F6 human-rabbit chimeric anti-CD40 antibody (antibody, human IgG1, V domains shown)
# VH: QSVKESEGGLFKPTDTLTLTCTVSGFSLSSYAISWVRQAPGNGLEWIGAIDRYGTTYYATWAKSRSTITRNTNENTVTLKMTSLTAADTATYFCARGPWYYGGDVAWTGSFDPWGPGTLVTVSS
# VL: AQVLTQTASPVSAAVGGTVTISCQSSQSVANNDFLSWYQQKPGQPPKLLIYGASTLASGVPSRFRGNGSGTQFTLTITGMQCDDAATYFCTGGYAGPIYIFGGGTEVVVK
# B2: 9F10 human-rabbit chimeric anti-CD40 antibody (antibody, human IgG1, V domains shown)
# VH: QSVKESEGGLFKPTDTLTLTCTVSGFSLSSYDMSWVRQAPGNGLEWIGAIGGAGGTYYASWAKSRSTITRNTNLNTVTLKMTSLTAADTATYFCTRGWTRLDLWGQGTLVTVSS
# VL: DIVLTQTESPVSGPVGGTVTINCQASEDISSNLAWYQQKPGQPPKLLIYAASNLASGVPSRFKGSGSGTEFTLTISDLECADAATYYCQGAYWSSTSYFGNGFGGGTQVVVK
# B3: 5A9 human-rabbit chimeric anti-CD40 antibody (antibody, human IgG1, V domains shown)
# VH: B2 VH with V23A, G25R, V77L, T95A
# VL: B2 VL with E8A, P14A, A25S, A34S, A91G, S95G, T96I, Y98N, Q108E
# B4: 10A4 human-rabbit chimeric anti-CD40 antibody (antibody, human IgG1, V domains shown)
# VH: QSLEESGGRLVTPGGSLTLTCTVSGIDLSRNAISWVRQSPGNGLEWIGGIGSSGSAYYASWAKSRSTITRDTNLNTVTLKMTSLTAADTATYFCARDGYAGSSWGIYYGMDPWGPGTLVTVSS
# VL: AIEMTQSPPSLSASVGETVRIRCLASEDIYRGISWYQQKPGKPPTLLIYGASTLQSGVPPRFSGSGSGTDYTLTIGGVQAEDAATYYCLGGHSYSSAGLTFGAGTKVEIK
# B5: 4D4 human-rabbit chimeric anti-CD40 antibody (antibody, human IgG1, V domains shown)
# VH: QSVKESEGGLFKPTDTLTLTCTVSGFSLSSYGVSWVRQAPGNGLEWIGGIGSDGSAYYASWAKSRATITRDTNLKTVTLEMTSLTAADTATYFCARGGITVYAIWGPGTLVTVSS
# VL: AFELTQTPSPVSAAVGGTVTIKCQASQSISNGLAWYQQKPGQPPKVLIVGASNLASGVSSRFKGSGSGTEFTLSISDLECADGATYYCQSYFSSSSTVFGGGTEVVVK
# B6: 8C12 human-rabbit chimeric anti-CD40 antibody (antibody, human IgG1, V domains shown)
# VH: B5 VH with A86V
# VL: B5 VL
# B7: 8G10 human-rabbit chimeric anti-CD40 antibody (antibody, human IgG1, V domains shown)
# VH: B5 VH with D15A, N42S, G51A, D53T, S55T, A56T, S60N, A66S, E80K, V101A
# VL: B5 VL with P10S, S12E, S30T, V46L, V49A, S74T, G83A, F92Y, S93D
# B8: 5B8 human-rabbit chimeric anti-CD40 antibody (antibody, human IgG1, V domains shown)
# VH: B5 VH with S29N, G49A, D53S, K63R, A66S, K75N, E80K
# VL: AFELTQTPSPVSAAVGGTVTINCQASEDITNGIAWYQQKPGQPPKLLIAGASNLASGVSSRFKGSGSGTEFTLTISDLECDDAATYYCQSYYSSSYTIFGGGTEVVVK
# B9: 4F6 human-rabbit chimeric anti-CD40 antibody (antibody, human IgG1, V domains shown)
# VH: B5 VH with T14A, G25R, S34T, G49A, D53T, A66S, K75N, E80K, V101A
# VL: AFELTQTPSSVEAAVGGTVTIKCQASQSISNGLAWYQQKPGQPPKLLIAGASNLASGVSSRFKGSGSGIEFILTISDLECADAATYYCQSYYNSFTTVFGGGTEVVVK
# B10: humanized anti-CD40 antibody 9E6-L2H1 (antibody, human IgG1, V domains shown)
# VH: EVQLQESGPGLVKPSDTLSLTCTVSGFSLSSYDMSWIRQPPGKGLEWIGAIGGAGGTYYASWAKSRVTISVDTSLNQVSLKLSSVTAADTAVYYCARGWTRLDLWGQGTLVTVSS
# VL: DIQLTQSPSFLSASVGDRVTITCQASEDISSNLAWYQQKPGKPPKLLIFPASNLASGVPSRFSGSGSGTEFTLTISSLQPEDFATYYCQGGYWTSTSNFGSGFGGGTKVEIK
# B11: humanized anti-CD40 antibody 9E6-L1H2 (antibody, human IgG1, V domains shown)
# VH: B10 VH with E1Q, L4V
# VL: B10 VL with S101N, G102V
# B12: humanized anti-CD40 antibody 9E6-L3H2 (antibody, human IgG1, V domains shown)
# VH: B10 VH with E1Q, L4V
# VL: B10 VL with S101T
# B13: humanized anti-CD40 antibody 9E6-L3H1 (antibody, human IgG1, V domains shown)
# VH: B10 VH
# VL: B10 VL with S101T
# B14: humanized anti-CD40 antibody 9E6-L1H1 (antibody, human IgG1, V domains shown)
# VH: B10 VH
# VL: B10 VL with S101N, G102V
# B15: humanized anti-CD40 antibody 9E6-L2H2 (antibody, human IgG1, V domains shown)
# VH: B10 VH with E1Q, L4V
# VL: B10 VL
# B16: humanized anti-CD40 antibody 9E6-L4H1 (antibody, human IgG1, V domains shown)
# VH: B10 VH
# VL: B10 VL with S101Q
# B17: humanized anti-CD40 antibody 2F12-L2H1 (antibody, human IgG1, V domains shown)
# VH: EVTLKESGPVLVKPTETLTLTCTVSGFSLSSYGVSWIRQPPGKALEWLAGIGSDGSAYYASWAKSRLTISRDTNLKQVVLTMTNMDPVDTATYYCARGGITVYAMWGQGTLVTVSS
# VL: AFQLTQSPSSLSASVGDRVTITCQASQSISQGLAWYQQKPGKPPKLLIVGASNLASGVPSRFSGSGSGTDFTLTISSLQPEDFATYYCQSYFSSSSTVFGGGTKVEIK
# B18: humanized anti-CD40 antibody 2F12-L1H2 (antibody, human IgG1, V domains shown)
# VH: B17 VH with L4V, A49G
# VL: B17 VL with Q31N, G32V
# B19: humanized anti-CD40 antibody 2F12-L1H1 (antibody, human IgG1, V domains shown)
# VH: B17 VH
# VL: B17 VL with Q31N, G32V
# B20: humanized anti-CD40 antibody 2F12-L4H1 (antibody, human IgG1, V domains shown)
# VH: B17 VH
# VL: B17 VL with Q31T
# B21: humanized anti-CD40 antibody 2F12-L2H2 (antibody, human IgG1, V domains shown)
# VH: B17 VH with L4V, A49G
# VL: B17 VL
# B22: humanized anti-CD40 antibody 2F12-L3H2 (antibody, human IgG1, V domains shown)
# VH: B17 VH with L4V, A49G
# VL: B17 VL with Q31S
# B23: humanized anti-CD40 antibody 2F12-L3H1 (antibody, human IgG1, V domains shown)
# VH: B17 VH
# VL: B17 VL with Q31S
# Target: T1, human CD40 on the cell surface (human, UniProt P25942 21-277)
# T1 sequence (P25942 21-277): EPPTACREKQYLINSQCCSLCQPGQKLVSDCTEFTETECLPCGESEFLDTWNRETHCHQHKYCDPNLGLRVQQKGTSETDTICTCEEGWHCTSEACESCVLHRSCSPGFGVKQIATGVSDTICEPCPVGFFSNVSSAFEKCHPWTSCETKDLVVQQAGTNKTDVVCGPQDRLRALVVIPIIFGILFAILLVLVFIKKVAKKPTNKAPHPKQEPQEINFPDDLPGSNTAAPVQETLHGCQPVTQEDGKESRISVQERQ
# Test: cell-based or functional assay
row,"reporter gene cell activity IC50 (HEK-Blue CD40L cells, SEAP)",Binder
1,0.378 nM,B1
2,0.217 nM,B2
3,0.317 nM,B3
4,0.217 nM,B4
5,0.197 nM,B5
6,0.173 nM,B6
7,0.156 nM,B7
8,0.203 nM,B8
9,0.182 nM,B9

# Target: T1, human CD40 on the cell surface
# Test: flow cytometry on Raji cells, AF647 anti-human IgG detection
# Method: Raji cells are of a tumor cell line that overexpresses human CD40. 2E5 Raji cells were inoculated onto a 96-well plate. 100 μL of a test antibody was added, with the highest final concentration of 100 nM. The antibody was 5-fold diluted to 8 concentrations. The plate was incubated at 4° C. for 1 h. […] The plate was incubated at 4° C. for 30 min. The plate was washed once with wash buffer, and fluorescence intensity was measured using a flow cytometer. The binding EC₅₀ values of the anti-CD40 antibodies for CD40 were calculated. The anti-CD40 antagonistic antibody CFZ533 (i.e., iscalimab, Nova) was used as a positive control, and the heavy and light chain variable region sequences were derived from sequence 5 and sequence 2 of U.S. Pat. No. 8,277,810B, respectively.
row,EC50,Binder
1,1.51 nM,B1
2,0.671 nM,B3
3,0.467 nM,B4
4,0.435 nM,B8
5,0.258 nM,B9

# Target: T1, human CD40 on the cell surface
# Test: flow cytometry on Raji cells, Alexa Fluor 488 anti-human IgG (H+L) detection
# Method: Raji cells were plated at 1.5E5/well, and various concentrations of CD40 antagonistic antibodies were added. The plate was incubated at 4° C. for 1 h. After two washes with FACS buffer (PBS+2% FBS), a secondary antibody (Alexa Flour488 conjugated anti-human IgG (H+L) antibody) was added, and the plate was incubated at 4° C. for 0.5 h.
# After two washes with FACS buffer, the fluorescence intensity on the cell surface was measured by flow cytometry (BD FACS Celesta).
row,EC50,Binder
1,1.99 nM,B10
2,1.05 nM,B11
3,1.15 nM,B12
4,1.06 nM,B13
5,1.08 nM,B14
6,1.66 nM,B15
7,0.928 nM,B16
8,0.516 nM,B17
9,0.469 nM,B18
10,0.549 nM,B19
11,0.508 nM,B20
12,0.516 nM,B21
13,0.762 nM,B22
14,0.456 nM,B23
